Measurements published in publication PMC4883682, “STIM1 activation is regulated by a 14 amino acid sequence adjacent to the CRAC activation domain” (AIMS biophysics, 2016).

Biological target: the molecule itself
Assay: cross-linking; chemical crosslinking with dithiobis(succinymidyl propionate); constructs separately expressed; unstimulated state (Supplemental Figure S2)

| Protein | stoichiometry N |
| --- | --- |
| STIM1(del344-448)-mApple (natural protein, human, UniProt Q13586 23-685, looked up, signal peptide in the construct; source: COS7 cells, transiently transfected (Lipofectamine 2000), in live cells; not shown: mApple, C-terminal, kept) LSHSHSEKATGTSSGANSEESTAAEFCRIDKPLCHSEDEKLSFEAVRNIHKLMDDDANGDVDVEESDEFLREDLNYHDPTVKHSTFHGEDKLISVEDLWKAWKSSEVYNWTVDEVVQWLITYVELPQYEETFRKLQLSGHAMPRLAVTNTTMTGTVLKMTDRSHRQKLQLKALDTVLFGPPLLTRHNHLKDFMLVVSIVIGVGGCWFAYIQNRYSKEHMKKMMKDLEGLHRAEQSLHDLQERLHKAQEEHRTVEVEKVHLEKKLRDEINLAKQEAQRLKELREGTENERSRQKYAEEELEQVREALRKAEKELESHSSWYASLVAALNIDPSWMGSTRPNPAHFIMTDDVDDMDEEIVSPLSMQSPSLQSSVRQRLTEPQHGLGSQRDLTHSDSESSLHMSDRQRVAPKPPQMSRAADEALNAMTSNGSHRLIEGVHPGSLVEKLPDSPALAKKALLALNHGLDKAHSLMELSPSAPPGGSPHLDSSRSHSPSSPDPDTPSPVGDSRALQASRNTRIPHLAGKKAVAEEDNGSIGEETDSSPGRKKFPLKIFKKPLKK | 2 |
| STIM1(del302-462)-mApple (natural protein, human, UniProt Q13586 23-685, looked up, signal peptide in the construct; source: COS7 cells, transiently transfected (Lipofectamine 2000), in live cells; not shown: mApple, C-terminal, kept) LSHSHSEKATGTSSGANSEESTAAEFCRIDKPLCHSEDEKLSFEAVRNIHKLMDDDANGDVDVEESDEFLREDLNYHDPTVKHSTFHGEDKLISVEDLWKAWKSSEVYNWTVDEVVQWLITYVELPQYEETFRKLQLSGHAMPRLAVTNTTMTGTVLKMTDRSHRQKLQLKALDTVLFGPPLLTRHNHLKDFMLVVSIVIGVGGCWFAYIQNRYSKEHMKKMMKDLEGLHRAEQSLHDLQERLHKAQEEHRTVEVEKVHLEKKLRDEINLAKQEAQRLKSTRPNPAHFIMTDDVDDMDEEIVSPLSMQSPSLQSSVRQRLTEPQHGLGSQRDLTHSDSESSLHMSDRQRVAPKPPQMSRAADEALNAMTSNGSHRLIEGVHPGSLVEKLPDSPALAKKALLALNHGLDKAHSLMELSPSAPPGGSPHLDSSRSHSPSSPDPDTPSPVGDSRALQASRNTRIPHLAGKKAVAEEDNGSIGEETDSSPGRKKFPLKIFKKPLKK | 2 |
